Article doi:10.1101/2025.09.29.679187 (bioRxiv, 2025)

Target: 6xHis-PDE6D (UniProt O43924 1-150)
Experiment: fluorescence polarisation

Chain of 6xHis-PDE6D (O43924 whole entry): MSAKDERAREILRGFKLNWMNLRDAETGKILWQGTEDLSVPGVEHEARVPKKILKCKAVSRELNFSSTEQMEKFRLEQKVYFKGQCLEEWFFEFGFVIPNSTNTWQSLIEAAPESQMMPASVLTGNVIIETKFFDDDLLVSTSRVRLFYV

B1: Wild-type K-Ras peptide (FAM-KKKKKKSKTKC-Far-OMe) (peptide)
peptide: KKKKKKSKTKC
modifications: FAM on the N-terminus; C-terminal cysteine farnesylated (Far) and carboxymethylated (OMe)
  Kd: 200 nM
